In patent publication US20220298218A1 (ANTAG THERAPEUTICS, published 2022):
Where no end group is shown, it is not given here. The star is where a group is joined. C16 diacid = O=C(O)CCCCCCCCCCCCCCC(=O)*

T1: human GIP receptor (human, UniProt P48546 22-466)
T1 sequence (looked up): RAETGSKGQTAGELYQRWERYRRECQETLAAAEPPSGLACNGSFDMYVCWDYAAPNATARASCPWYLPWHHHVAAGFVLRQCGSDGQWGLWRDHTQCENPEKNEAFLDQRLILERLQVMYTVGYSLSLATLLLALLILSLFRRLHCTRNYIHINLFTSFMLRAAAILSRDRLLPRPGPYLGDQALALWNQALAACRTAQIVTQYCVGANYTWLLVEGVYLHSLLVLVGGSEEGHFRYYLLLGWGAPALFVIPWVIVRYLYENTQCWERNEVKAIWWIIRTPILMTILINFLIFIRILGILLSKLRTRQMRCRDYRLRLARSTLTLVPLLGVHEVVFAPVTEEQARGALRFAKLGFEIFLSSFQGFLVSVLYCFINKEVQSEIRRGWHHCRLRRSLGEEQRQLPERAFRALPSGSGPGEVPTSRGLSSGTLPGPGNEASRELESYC

B1: AT450 (peptide)
peptide: EGTFISDYSIAMDKIK(C16 diacid)QQDFVNWLLAQKGKKND-OH
modifications: N-terminus assumed
SMILES: CC[C@H](C)[C@H](NC(=O)[C@H](CO)NC(=O)[C@H](Cc1ccc(O)cc1)NC(=O)[C@H](CC(=O)O)NC(=O)[C@H](CO)NC(=O)[C@@H](NC(=O)[C@H](Cc1ccccc1)NC(=O)[C@@H](NC(=O)CNC(=O)[C@@H](N)CCC(=O)O)[C@@H](C)O)[C@@H](C)CC)C(=O)N[C@@H](C)C(=O)N[C@@H](CCSC)C(=O)N[C@@H](CC(=O)O)C(=O)N[C@@H](CCCCN)C(=O)N[C@H](C(=O)N[C@@H](CCCCNC(=O)CCCCCCCCCCCCCCC(=O)O)C(=O)N[C@@H](CCC(N)=O)C(=O)N[C@@H](CCC(N)=O)C(=O)N[C@@H](CC(=O)O)C(=O)N[C@@H](Cc1ccccc1)C(=O)N[C@H](C(=O)N[C@@H](CC(N)=O)C(=O)N[C@@H](Cc1c[nH]c2ccccc12)C(=O)N[C@@H](CC(C)C)C(=O)N[C@@H](CC(C)C)C(=O)N[C@@H](C)C(=O)N[C@@H](CCC(N)=O)C(=O)N[C@@H](CCCCN)C(=O)NCC(=O)N[C@@H](CCCCN)C(=O)N[C@@H](CCCCN)C(=O)N[C@@H](CC(N)=O)C(=O)N[C@@H](CC(=O)O)C(=O)O)C(C)C)[C@@H](C)CC
B2: AT451 (peptide)
peptide: EGTFISDYSIAMDKIK(C16 diacid)QQDFVNWLLAQKGKKNDWK-OH
modifications: N-terminus assumed
SMILES: CC[C@H](C)[C@H](NC(=O)[C@H](CO)NC(=O)[C@H](Cc1ccc(O)cc1)NC(=O)[C@H](CC(=O)O)NC(=O)[C@H](CO)NC(=O)[C@@H](NC(=O)[C@H](Cc1ccccc1)NC(=O)[C@@H](NC(=O)CNC(=O)[C@@H](N)CCC(=O)O)[C@@H](C)O)[C@@H](C)CC)C(=O)N[C@@H](C)C(=O)N[C@@H](CCSC)C(=O)N[C@@H](CC(=O)O)C(=O)N[C@@H](CCCCN)C(=O)N[C@H](C(=O)N[C@@H](CCCCNC(=O)CCCCCCCCCCCCCCC(=O)O)C(=O)N[C@@H](CCC(N)=O)C(=O)N[C@@H](CCC(N)=O)C(=O)N[C@@H](CC(=O)O)C(=O)N[C@@H](Cc1ccccc1)C(=O)N[C@H](C(=O)N[C@@H](CC(N)=O)C(=O)N[C@@H](Cc1c[nH]c2ccccc12)C(=O)N[C@@H](CC(C)C)C(=O)N[C@@H](CC(C)C)C(=O)N[C@@H](C)C(=O)N[C@@H](CCC(N)=O)C(=O)N[C@@H](CCCCN)C(=O)NCC(=O)N[C@@H](CCCCN)C(=O)N[C@@H](CCCCN)C(=O)N[C@@H](CC(N)=O)C(=O)N[C@@H](CC(=O)O)C(=O)N[C@@H](Cc1c[nH]c2ccccc12)C(=O)N[C@@H](CCCCN)C(=O)O)C(C)C)[C@@H](C)CC
B3: AT361 (peptide)
peptide: EGTFISDYSIAMDKIK(C16 diacid)QQDFVNWLLAQKGKKNDW-OH
modifications: N-terminus assumed
SMILES: CC[C@H](C)[C@H](NC(=O)[C@H](CO)NC(=O)[C@H](Cc1ccc(O)cc1)NC(=O)[C@H](CC(=O)O)NC(=O)[C@H](CO)NC(=O)[C@@H](NC(=O)[C@H](Cc1ccccc1)NC(=O)[C@@H](NC(=O)CNC(=O)[C@@H](N)CCC(=O)O)[C@@H](C)O)[C@@H](C)CC)C(=O)N[C@@H](C)C(=O)N[C@@H](CCSC)C(=O)N[C@@H](CC(=O)O)C(=O)N[C@@H](CCCCN)C(=O)N[C@H](C(=O)N[C@@H](CCCCNC(=O)CCCCCCCCCCCCCCC(=O)O)C(=O)N[C@@H](CCC(N)=O)C(=O)N[C@@H](CCC(N)=O)C(=O)N[C@@H](CC(=O)O)C(=O)N[C@@H](Cc1ccccc1)C(=O)N[C@H](C(=O)N[C@@H](CC(N)=O)C(=O)N[C@@H](Cc1c[nH]c2ccccc12)C(=O)N[C@@H](CC(C)C)C(=O)N[C@@H](CC(C)C)C(=O)N[C@@H](C)C(=O)N[C@@H](CCC(N)=O)C(=O)N[C@@H](CCCCN)C(=O)NCC(=O)N[C@@H](CCCCN)C(=O)N[C@@H](CCCCN)C(=O)N[C@@H](CC(N)=O)C(=O)N[C@@H](CC(=O)O)C(=O)N[C@@H](Cc1c[nH]c2ccccc12)C(=O)O)C(C)C)[C@@H](C)CC
B4: AT449 (peptide)
peptide: EGTFISDYSIAMDKIK(C16 diacid)QQDFVNWLLAQKGKKN-OH
modifications: N-terminus assumed
SMILES: CC[C@H](C)[C@H](NC(=O)[C@H](CO)NC(=O)[C@H](Cc1ccc(O)cc1)NC(=O)[C@H](CC(=O)O)NC(=O)[C@H](CO)NC(=O)[C@@H](NC(=O)[C@H](Cc1ccccc1)NC(=O)[C@@H](NC(=O)CNC(=O)[C@@H](N)CCC(=O)O)[C@@H](C)O)[C@@H](C)CC)C(=O)N[C@@H](C)C(=O)N[C@@H](CCSC)C(=O)N[C@@H](CC(=O)O)C(=O)N[C@@H](CCCCN)C(=O)N[C@H](C(=O)N[C@@H](CCCCNC(=O)CCCCCCCCCCCCCCC(=O)O)C(=O)N[C@@H](CCC(N)=O)C(=O)N[C@@H](CCC(N)=O)C(=O)N[C@@H](CC(=O)O)C(=O)N[C@@H](Cc1ccccc1)C(=O)N[C@H](C(=O)N[C@@H](CC(N)=O)C(=O)N[C@@H](Cc1c[nH]c2ccccc12)C(=O)N[C@@H](CC(C)C)C(=O)N[C@@H](CC(C)C)C(=O)N[C@@H](C)C(=O)N[C@@H](CCC(N)=O)C(=O)N[C@@H](CCCCN)C(=O)NCC(=O)N[C@@H](CCCCN)C(=O)N[C@@H](CCCCN)C(=O)N[C@@H](CC(N)=O)C(=O)O)C(C)C)[C@@H](C)CC

molecular target: T1, human GIP receptor; assay: cell-based or functional assay

In order of rising “cAMP agonism Emax” value:
1. B3  5
2. B1  5.8
3. B4  8.6
4. B2  9.2

In order of falling “cAMP antagonism” value:
1. B2  8 nM
2. B4  4 nM
3. B1  3 nM
4. B3  2 nM

In order of falling “cAMP antagonism % inhib” value:
1. B3  100%
2. B4  95%
3. B2  75%
4. B1  57%

In order of falling cAMP antagonism log:
1. B2  -8.1 log M
2. B4  -8.4 log M
3. B1  -8.5 log M
4. B3  -8.8 log M

molecular target: T1, human GIP receptor; assay: cell-based or functional assay; remark: another data set of the same source

In order of falling “cAMP agonism % Emax” value:
1. B1  0%
2. B2  0%
3. B3  0%
4. B4  0%

In order of rising “cAMP antagonism” value:
1. B1  2.29 nM
2. B2  2.33 nM
3. B3  3.76 nM
4. B4  5.84 nM

In order of falling “cAMP antagonism % inhib” value:
1. B2  99%
2. B3  99%
3. B1  97%
4. B4  89%

In order of falling “cAMP antagonism pIC50” value:
1. B1  8.6
2. B2  8.6
3. B3  8.4
4. B4  8.2
